Columns and labels:
[1] = target: T1, human CD16A antigen (ACRO biosystems, CDD-H52W1) (human, UniProt P08637 17-208, limits assumed); test: ELISA, plate coated with human CD16A at 2 µg/mL, HRP-goat anti-human IgG, OD450
T1 construct: Bought protein; also called human CD16A protein
Experimental: (§1) Human BCMA (ACRO biosystems, BCA-H522y) or human CD16A antigen (ACRO biosystems, CDD-H52W1) was diluted to 2 μg/mL with the coating buffer (35 mM NaHCO₃, 15 mM Na₂CO₃, pH 9.6). 100 μL of the diluted solution was added to each well of the enzyme-linked plate and incubated overnight at 4° C. Then, the plate was washed three times with PBST (0.05% Tween 20-PBS, pH 7.2). 300 μL of blocking buffer (1% BSA, 0.05% Tween20-PBS, pH 7.2) was added to the plate and left to stand at room temperature for 2 hours. The plate was washed three times with PBST again. The corresponding bispecific antibody or the control antibody hIgG1 was added to each well and incubated at room temperature for 1 hour. The precipitate was washed three times with PBST. 100 μL of HRP-goat anti-human IgG secondary antibody (Jackson ImmunoResearch, 109-036-170) diluted with the blocking buffer was added to each well and incubated at room temperature for 1 hour. The plate was washed three times with PBST. TMB was added to each well. A reaction was performed at room temperature in the dark for 2 min to 5 min. The reaction was terminated by adding 2 M sulfuric acid to each well. OD450 values were read using a microplate reader.

[2] = target: T2, Human BCMA (ACRO biosystems, BCA-H522y) (human, UniProt Q02223 1-54); test: ELISA, plate coated with human BCMA at 2 µg/mL, HRP-goat anti-human IgG, OD450
T2 construct: Bought protein; also called human BCMA protein; BCMA antigen
T2 sequence (looked up): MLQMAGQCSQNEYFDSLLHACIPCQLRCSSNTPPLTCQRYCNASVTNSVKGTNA
Experimental: as §1

[3] = target: T3, human CD16A^158F (ACRO biosystems, CDA-H5220) (human, UniProt P08637 17-208); test: ELISA, plate coated with human CD16A at 2 µg/mL, HRP-goat anti-human IgG, OD450
T3 construct: extracellular domain; Bought protein; also called human CD16A extracellular segment protein
T3 sequence (P08637 17-208): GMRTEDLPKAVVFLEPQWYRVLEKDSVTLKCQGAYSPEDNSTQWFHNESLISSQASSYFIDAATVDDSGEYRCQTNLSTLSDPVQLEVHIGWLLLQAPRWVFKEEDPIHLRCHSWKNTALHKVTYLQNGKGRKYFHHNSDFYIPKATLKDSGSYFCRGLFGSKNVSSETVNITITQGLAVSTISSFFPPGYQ
Experimental: (§2) Human B7H6 (ACRO biosystems, B76-H52H8) or human CD16A antigen (ACRO biosystems, Catalog No. CDA-H5220) was diluted to 2 μg/mL with the coating buffer (35 mM NaHCO₃, 15 mM Na₂CO₃, pH 9.6). 100 μL of the diluted solution was added to each well of the enzyme-linked plate and incubated overnight at 4° C. Then, the plate was washed three times with PBST (0.05% Tween 20-PBS, pH 7.2). 300 μL of blocking buffer (1% BSA, 0.05% Tween20-PBS, pH 7.2) was added to the plate and left to stand at room temperature for 2 hours. The plate was washed three times with PBST again. The corresponding bispecific antibody or control antibody hIgG was added to each well and incubated at room temperature for 1 hour. Again, the plate was washed three times with PBST. 100 μL of HRP-goat anti-human IgG secondary antibody (Jackson ImmunoResearch, 109-036-170) diluted with the blocking buffer was added to each well and incubated at room temperature for 1 hour. After incubation, the precipitate was washed three times with PBST. TMB was added to each well. A reaction was performed at room temperature in the dark for 2 min to 5 min. The reaction was terminated by adding 2 M sulfuric acid to each well. OD450 values were read using a microplate reader.

[4] = target: T4, Human B7H6 (ACRO biosystems, B76-H52H8) (human, UniProt Q68D85 25-262); test: ELISA, plate coated with human B7H6 at 2 µg/mL, HRP-goat anti-human IgG, OD450
T4 construct: Bought protein; also called human B7H6 protein; B7H6 antigen
T4 sequence (looked up): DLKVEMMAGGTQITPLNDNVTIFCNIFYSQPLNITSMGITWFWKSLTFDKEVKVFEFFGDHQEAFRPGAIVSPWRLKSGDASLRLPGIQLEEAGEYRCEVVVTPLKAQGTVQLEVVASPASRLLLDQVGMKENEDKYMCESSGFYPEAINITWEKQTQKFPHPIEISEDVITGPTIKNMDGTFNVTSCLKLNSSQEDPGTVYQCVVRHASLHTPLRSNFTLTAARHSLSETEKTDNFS
Experimental: as §2

[5] = target: T5, human CD16B^NA2 (ACRO biosystems, CDB-H5222) (human, UniProt O75015 17-200); test: ELISA, plate coated with human CD16B^NA2 at 2 µg/mL, HRP-goat anti-mouse IgG, OD450
T5 construct: Bought protein; NA2 polymorphic form; also called human CD16B^NA2 protein
T5 sequence (O75015 17-200 N65S limits assumed): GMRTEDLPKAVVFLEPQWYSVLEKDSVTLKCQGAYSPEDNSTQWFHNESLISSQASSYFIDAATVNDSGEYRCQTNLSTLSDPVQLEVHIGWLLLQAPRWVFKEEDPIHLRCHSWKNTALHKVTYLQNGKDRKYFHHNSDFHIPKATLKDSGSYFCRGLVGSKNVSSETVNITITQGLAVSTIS
Experimental: (§3) The ELISA experiment was performed to detect the binding properties of the murine CD16A antibody m40F5 obtained in Example 1. […] Then, the plate was then washed three times with PBST (0.05% Tween 20-PBS, pH 7.2). 300 μL of blocking buffer (1% BSA, 0.05% Tween20-PBS, pH 7.2) was added to the plate and left to stand at room temperature for 2 hours. Then, the plate was washed again three times with PBST. Murine antibody m40F5 or control antibody LS21 (WO2006/125668 EN) was added to each well and incubated at room temperature for 1 hour.
(§4) Again, the plate was washed three times with PBST. 100 μL of HRP-goat anti-mouse IgG secondary antibody (boster, Catalog No. BA1051) diluted with the blocking buffer was added to each well and incubated at room temperature for 1 hour. The plate was washed three times with PBST. TMB was added to each well. A reaction was performed at room temperature in the dark for 2 min to 5 min. The reaction was terminated with 2 M sulfuric acid. OD450 values were read using a microplate reader.

[6] = target: T6, human CD16A protein on CHO-K1 cells overexpressing human CD16A (human, UniProt P08637 17-254); test: Flow cytometry on CHO-K1 cells overexpressing human CD16A, Alexa-647 goat anti-mouse secondary antibody, binding proportion (%)
T6 construct: also called CHO cell overexpressing a human CD16A protein
T6 sequence (P08637 17-254 limits assumed): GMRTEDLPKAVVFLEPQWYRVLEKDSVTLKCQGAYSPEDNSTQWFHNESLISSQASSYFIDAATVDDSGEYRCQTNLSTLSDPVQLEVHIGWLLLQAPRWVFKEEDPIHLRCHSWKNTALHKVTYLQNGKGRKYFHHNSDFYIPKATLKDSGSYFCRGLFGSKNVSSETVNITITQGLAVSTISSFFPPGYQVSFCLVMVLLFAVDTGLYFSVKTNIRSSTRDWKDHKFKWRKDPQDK
Experimental: (§5) The CHO-K1 cells overexpressing human CD16A or CHO-K1 cells overexpressing cynomolgus monkey CD16 obtained in Example 1 were diluted to 2×10⁶/mL with PBS and added to a 1.5 mL EP tube at a volume of 100 μL/tube. Then, 10 μL of goat serum was added to each tube. The mixture was blocked at 4° C. for 30 min. The CD16A antibody and the control antibody mlgG at gradient concentrations (5-fold serial dilution, with the highest final concentration of 10 μg/mL) were added and incubated at 4° C. for 30 minutes. Each EP tube was filled with 1 mL of PBS and centrifuged at 3,500 rpm for 5 min at 4° C. The supernatant was completely discarded, and the cells were washed once again with PBS. After another centrifugation, the supernatant was completely discarded. The cells were resuspended in 100 μL/tube of PBS. Alexa-647-conjugated goat anti-murine antibody secondary antibody (Invitrogen) was added at […]. The cells were incubated at 4° C. in the dark for 30 min, and were washed twice with PBS and centrifuged. Then, the supernatant was completely discarded. The cells were resuspended in 200 μL/tube of PBS and detected using a flow cytometer.

[7] = target: T7, human CD16B^SH (Sino Biological, 11046-H08H2) (human, UniProt O75015 17-200); test: ELISA, plate coated with human CD16B^SH at 2 µg/mL, HRP-goat anti-mouse IgG, OD450
T7 construct: Bought protein; SH polymorphic form; also called human CD16B^SH protein
T7 sequence (O75015 17-200 N65S/A78D limits assumed): as the sequence (O75015 17-200 N65S limits assumed) above, with A62D counted along it
Experimental: as §3, §4

[8] = target: T3, human CD16A^158F (ACRO biosystems, …); test: ELISA, plate coated with human CD16A^158F at 2 µg/mL, HRP-goat anti-mouse IgG, OD450
Experimental: as §3, §4

[9] = target: T8, human CD16B^NA1 (ACRO biosystems, CDB-H5227) (human, UniProt O75015 17-200, limits assumed); test: ELISA, plate coated with human CD16B^NA1 at 2 µg/mL, HRP-goat anti-mouse IgG, OD450
T8 construct: Bought protein; NA1 polymorphic form; also called human CD16B^NA1 protein
T8 sequence (O75015 other isoform, or with tags, fused parts or gaps limits assumed): as the sequence (O75015 17-200 N65S limits assumed) above, with S20R, S49N, N66D, I90V counted along it
Experimental: as §3, §4

[10] = target: T9, human CD16A^158V (ACRO biosystems, CD8-H52H4) (human, UniProt P08637 17-208); test: ELISA, plate coated with human CD16A^158V at 2 µg/mL, HRP-goat anti-mouse IgG, OD450
T9 construct: Bought protein; It is the 158V polymorphic form; also called human CD16A^158V protein
T9 sequence (P08637 17-208 F176V limits assumed): as the sequence (P08637 17-208) above, with F160V counted along it
Experimental: as §3, §4

[11] = target: T10, cynomolgus monkey CD16 (ACRO biosystems, FC6-C52H9) (cynomolgus monkey, UniProt Q8SPW2 17-208); test: ELISA, plate coated with cynomolgus monkey CD16 at 2 µg/mL, HRP-goat anti-mouse IgG, OD450
T10 construct: Bought protein; also called monkey CD16 protein; monkey CD16 antigen
T10 sequence (Q8SPW2 17-208 limits assumed): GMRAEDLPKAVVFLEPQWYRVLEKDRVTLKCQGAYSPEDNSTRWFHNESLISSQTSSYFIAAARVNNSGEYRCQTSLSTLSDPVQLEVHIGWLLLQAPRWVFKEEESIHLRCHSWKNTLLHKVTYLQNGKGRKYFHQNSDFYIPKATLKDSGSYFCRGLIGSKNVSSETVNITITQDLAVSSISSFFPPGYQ
Experimental: as §3, §4

[12] = target: T11, cynomolgus monkey CD16 protein on CHO-K1 cells overexpressing cynomolgus monkey CD16 (cynomolgus monkey, UniProt Q8SPW2 17-254); test: Flow cytometry on CHO-K1 cells overexpressing cynomolgus monkey CD16, Alexa-647 goat anti-mouse secondary antibody, binding proportion (%)
T11 construct: also called CHO cell overexpressing a cynomolgus monkey CD16A protein; monkey CD16A protein
T11 sequence (Q8SPW2 17-254 limits assumed): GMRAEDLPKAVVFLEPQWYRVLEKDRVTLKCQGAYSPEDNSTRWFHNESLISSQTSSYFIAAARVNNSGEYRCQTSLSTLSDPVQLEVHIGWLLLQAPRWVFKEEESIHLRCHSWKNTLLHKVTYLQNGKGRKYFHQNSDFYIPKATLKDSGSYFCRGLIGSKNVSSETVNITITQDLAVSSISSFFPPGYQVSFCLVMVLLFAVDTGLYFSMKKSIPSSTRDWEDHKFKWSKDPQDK
Experimental: as §5

T1 sequence (P08637 17-208 limits assumed): as the sequence (P08637 17-208) above

B1: bispecific antibody CD16A×BCMA (bispecific antibody, human IgG1, L234A L235A)
chain 1: not shown
chain 2: DIQMTQSPSSLSASVGDRVTITCSASQDISNYLNWYQQKPGKAPKLLIYYTSNLHSGVPSRFSGSGSGTDFTLTISSLQPEDFATYYCQQYRKLPWTFGQGTKLEIKRGGGGSGGGGSGGGGSQVQLVQSGAEVKKPGSSVKVSCKASGGTFSNYWMHWVRQAPGQGLEWMGATYRGHSDTYYNQKFKGRVTITADKSTSTAYMELSSLRSEDTAVYYCARGAIYDGYDVLDNWGQGTLVTVSSEPKSCDKTHTCPPCPAPEAAGGPSVFLFPPKPKDTLMISRTPEVTCVVVDVSHEDPEVKFNWYVDGVEVHNAKTKPREEQYNSTYRVVSVLTVLHQDWLNGKEYKCKVSNKALPAPIEKTISKAKGQPREPQVCTLPPSREEMTKNQVSLSCAVKGFYPSDIAVEWESNGQPENNYKTTPPVLDSDGSFFLVSKLTVDKSRWQQGNVFSCSVMHEALHNHYTQKSLSLSPGK
notes: also called CD16A×BCMA bispecific antibody
[1]
  EC50 (read off the curve): ~0.04 µg/mL
[2]
  EC50 (read off the curve): ~0.006 µg/mL

B2: bispecific antibody CD16A×B7H6 (bispecific antibody, human IgG1, L234A L235A)
chain 1: not shown
chain 2: DIVLTQTPLSLSVTPGQPASISCKASQSVDYDGDSYMNWYLQKPGQPPQLLIYAASTLHSGIPDRFSGSGSGTDFTLKISRVEAEDVGVYYCQQSKEDPRTFGQGTKLEIKGGGGSGGGGSGGGGSEVQLVQSGAEVKKPGASVKVSCKASGYTFTDYNMDWVRQAPGQGLEWIGDINPNNGGTLYNQKFRGRVTLTVDTSISTAYMELSRLRSDDTAVYYCARSEVFYGNYADYWGQGTTVTVSSEPKSCDKTHTCPPCPAPEAAGGPSVFLFPPKPKDTLMISRTPEVTCVVVDVSHEDPEVKFNWYVDGVEVHNAKTKPREEQYNSTYRVVSVLTVLHQDWLNGKEYKCKVSNKALPAPIEKTISKAKGQPREPQVCTLPPSREEMTKNQVSLSCAVKGFYPSDIAVEWESNGQPENNYKTTPPVLDSDGSFFLVSKLTVDKSRWQQGNVFSCSVMHEALHNHYTQKSLSLSPGK
notes: also called CD16A×B7H6 bispecific antibody
[3]
  EC50 (read off the curve): ~0.05 µg/mL
[4]
  EC50 (read off the curve): ~0.005 µg/mL

B3: murine CD16A antibody m40F5 (antibody, mouse IgG2a, kappa)
heavy: DVQLQESGPGLVKPSQSLSLTCTVTGYSITSDYAWNWIRQFPGNKLEWMGYISYSGYTNYNPSLESRISVTRDTSKNQFFLQLNSVTTEDTATYYCAREVGLRLGWFAYWGQGTLVAVSAAKTTAPSVYPLAPVCGDTTGSSVTLGCLVKGYFPEPVTLTWNSGSLSSGVHTFPAVLQSDLYTLSSSVTVTSSTWPSQSITCNVAHPASSTKVDKKIEPRGPTIKPCPPCKCPAPNLLGGPSVFIFPPKIKDVLMISLSPIVTCVVVDVSEDDPDVQISWFVNNVEVHTAQTQTHREDYNSTLRVVSALPIQHQDWMSGKEFKCKVNNKDLPAPIERTISKPKGSVRAPQVYVLPPPEEEMTKKQVTLTCMVTDFMPEDIYVEWTNNGKTELNYKNTEPVLDSDGSYFMYSKLRVEKKNWVERNSYSCSVVHEGLHNHHTTKSFSRTPGK
light: SIVMTQTPKFLLISAGDRVTITCKASQSVNNDVAWYQQKPGQSPKLLIYYASNRYTGVPDHFTGSGYGTDFTFTISTVQAEDLAVYFCQQHYSSPWTFGGGTKLEFKRADAAPTVSIFPPSSEQLTSGGASVVCFLNNFYPKDINVKWKIDGSERQNGVLNSWTDQDSKDSTYSMSSTLTLTKDEYERHNSYTCEATHKTSTSPIVKSFNRNEC
notes: also called murine m40F5 antibody; murine 40F5
[5]
  binding result: no binding (tested: 10^4 ng/ml)
[6]
  EC50 (read off the curve): ~0.02 µg/mL
[7]
  binding result: no binding (tested: 10^4 ng/ml)
[8]
  EC50 (read off the curve): ~0.02 µg/mL
[9]
  binding result: no binding (tested: 10^4 ng/ml)
[10]
  EC50 (read off the curve): ~0.03 µg/mL
[11]
  EC50 (read off the curve): ~0.02 µg/mL
[12]
  EC50 (read off the curve): ~0.005 µg/mL

— patent US20250297012A1 (HEFEI TG IMMUNOPHARMA, published 2025)
